Source: patent US20250066455A1 (published 2025)

Molecular target: SARS-CoV-2 WT Spike (SARS-CoV-2, UniProt P0DTC2 14-1208)
Assay: BLI

B1: REGN10987 (antibody, V domains shown)
VH: QVQLVESGGGVVQPGRSLRLSCAASGFTFSNYAMYWVRQAPGKGLEWVAVISYDGSNKYYADSVKGRFTISRDNSKNTLYLQMNSLRTEDTAVYYCASGSDYGDYLLVYWGQGTLVTVSS
VL: QSALTQPASVSGSPGQSITISCTGTSSDVGGYNYVSWYQQHPGKAPKLMIYDVSKRPSGVSNRFSGSKSGNTASLTISGLQSEDEADYYCNSLTSISTWVFGGGTKLTVLR
  Kd: < 0.01 nM

B2: REGN10933 (antibody, V domains shown)
VH: QVQLVESGGGLVKPGGSLRLSCAASGFTFSDYYMSWIRQAPGKGLEWVSYITYSGSTIYYADSVKGRFTISRDNAKSSLYLQMNSLRAEDTAVYYCARDRGTTMVPFDYWGQGTLVTVSS
VL: DIQMTQSPSSLSASVGDRVTITCQASQDITNYLNWYQQKPGKAPKLLIYAASNLETGVPSRFSGSGSGTDFTFTISGLQPEDIATYYCQQYDNLPLTFGGGTKVEIKR
  Kd: < 0.01 nM
